The target of assay [1] is T1, FcγRIIIa (V158)-biotin (ACRO Biosystems, Cat #CDA-H82E9) (UniProt P08637 17-208, biotin (site not stated)).
T1 construct: Bought biotinylated protein, immobilised on an SA biosensor
The experiment in a line: BLI (Octet QKe), FcγRIIIa (V158)-biotin on SA biosensor, antibody as analyte. How it is done: Specific experimental method for binding to FcγRIIIa (V158) were as follows. FcγRIIIa (V158)-biotin (ACRO Biosystems, Cat #CDA-H82E9) was diluted to 1 μg/mL. An SA Biosensor (Fertebio, Cat #18-5019) was immobilize in FcγRIIIa (V158)-biotin dilution to a signal of approximately 0.6 nm. […] The cycle of regeneration and neutralization was performed 3 times. The data was processed and analyzed using Data Analysis 8.2, and the sample data was fitted after sample blank (PBS) signal subtraction to obtain an affinity constant (KD).
A general note: Biolayer interferometry detects binding as a change in optical thickness at a sensor tip.

The target in assay [2] is T2, FcRn-biotin (ACRO Biosystems, Cat #FCM-H82W4) (UniProt P55899 24-297; P61769 21-119, biotin (site not stated)).
T2 construct: Bought biotinylated protein, immobilised on a streptavidin (SA) biosensor; the natural receptor is a heterodimer of FCGRT and B2M
As to the kind of experiment: BLI (Octet QKe), FcRn-biotin on SA biosensor, antibody as analyte. The procedure:
The cycle of regeneration and neutralization was performed 3 times.

The target of assay [3] is T3, FcγRIIIa (F158)-biotin (ACRO Biosystems, Cat #CDA-H82E8) (UniProt P08637 17-208, biotin (site not stated)).
T3 construct: Bought biotinylated protein, immobilised on an SA biosensor
As to the kind of experiment: BLI (Octet QKe), FcγRIIIa (F158)-biotin on SA biosensor, antibody as analyte. The procedure:
Specific experimental method for binding to FcγRIIIa (F158) were as follows. FcγRIIIa (F158)-biotin (ACRO Biosystems, Cat #CDA-H82E8) was diluted to 1 μg/mL. An SA Biosensor (Fertebio, Cat #18-5019) was immobilize in FcγRIIIa (F158)-biotin dilution to a signal of approximately 0.6 nm.
The cycle of regeneration and neutralization was performed 3 times. The data was processed and analyzed using Data Analysis 8.2, and the sample data was fitted after sample blank (PBS) signal subtraction to obtain an affinity constant (KD).

T1 sequence (P08637 17-208 F176V): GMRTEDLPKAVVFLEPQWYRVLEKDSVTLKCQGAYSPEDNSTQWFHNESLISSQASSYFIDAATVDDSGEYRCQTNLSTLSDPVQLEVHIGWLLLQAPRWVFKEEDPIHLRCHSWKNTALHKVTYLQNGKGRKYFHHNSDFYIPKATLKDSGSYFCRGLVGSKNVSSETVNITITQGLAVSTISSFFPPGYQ
T2 sequence (P55899 24-297 limits assumed, form in doubt, chain 1 of 2): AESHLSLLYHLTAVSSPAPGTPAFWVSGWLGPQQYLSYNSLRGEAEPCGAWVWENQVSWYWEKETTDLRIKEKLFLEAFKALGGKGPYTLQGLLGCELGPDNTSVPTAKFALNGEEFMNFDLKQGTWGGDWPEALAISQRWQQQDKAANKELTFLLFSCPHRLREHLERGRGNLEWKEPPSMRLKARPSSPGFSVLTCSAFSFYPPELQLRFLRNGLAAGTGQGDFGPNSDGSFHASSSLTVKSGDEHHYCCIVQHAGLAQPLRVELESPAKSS
T2 sequence (P61769 21-119 limits assumed, form in doubt, chain 2 of 2): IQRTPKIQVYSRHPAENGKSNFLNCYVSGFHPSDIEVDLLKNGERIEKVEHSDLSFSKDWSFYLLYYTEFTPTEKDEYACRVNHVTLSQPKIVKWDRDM
T3 sequence (P08637 17-208 limits assumed): as the sequence (P08637 17-208 F176V) above, with V160F counted along it

B1: Simponi (golimumab), commercially available (antibody, human IgG1, kappa)
heavy: not shown
light: not shown
notes: Bought product (Janssen Biologics B.V.); It differs from Antibody A by a higher NGNA glycosylation level; also called commercially available anti-TNF-α antibody; copies: 2 + 2
In general, Kd refers to the concentration at which binding is half-saturated. A high value points to lower affinity. Regarding B1, the results for the dissociation constant Kd in assay [1], in assay [2] and in assay [3] were 20.1 to 42.2 nM, 6.09 to 8.67 nM and 93 to 111 nM, respectively.

The values above are taken from US20230173068A1 (BIO THERA SOLUTIONS, published 2023).
